From patent US20250340653A1

Biological target: Canine IL-31RA ECD-10His (canine)
Assay: ELISA, IL-31RA coated at 1 ug/mL, biotinylated IL-31 titrated, HRP-streptavidin

Canine IL-31RA ECD-10His (canine), sequence (chain, as listed by the source limits assumed): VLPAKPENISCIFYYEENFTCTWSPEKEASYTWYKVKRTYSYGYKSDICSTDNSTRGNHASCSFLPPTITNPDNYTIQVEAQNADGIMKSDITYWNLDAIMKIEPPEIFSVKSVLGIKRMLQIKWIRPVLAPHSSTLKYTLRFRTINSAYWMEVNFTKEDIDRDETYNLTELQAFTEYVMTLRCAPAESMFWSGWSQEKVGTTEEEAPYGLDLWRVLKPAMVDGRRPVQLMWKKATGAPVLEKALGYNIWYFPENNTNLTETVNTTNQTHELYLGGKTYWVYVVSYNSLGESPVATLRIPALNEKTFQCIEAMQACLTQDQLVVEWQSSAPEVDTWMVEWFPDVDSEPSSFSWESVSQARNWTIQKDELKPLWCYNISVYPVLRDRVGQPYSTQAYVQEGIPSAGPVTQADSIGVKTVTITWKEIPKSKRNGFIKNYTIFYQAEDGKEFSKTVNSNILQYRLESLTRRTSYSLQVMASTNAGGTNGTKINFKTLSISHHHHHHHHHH

Substance: canine IL-31 (ligand)
- EC50: 0.55 ng/mL
